How the values were obtained:
[1] = target: T1, PU.1 Ets domain (UniProt P17947 170-253); experiment: EMSA
[2] = target: T2, Elk-1 Ets domain (UniProt P19419 5-86); experiment: EMSA
T2 sequence: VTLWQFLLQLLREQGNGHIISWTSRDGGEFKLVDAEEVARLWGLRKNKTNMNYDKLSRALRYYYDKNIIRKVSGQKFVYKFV

[3] = target: T1, PU.1 Ets domain; experiment: competition

B1: IR5 WT (dsDNA)
DNA 1: CTCACTTCCGCGTCCCGCCGC
DNA 2: GCGGCGGGACGCGGAAGTGAG
binding result [1]: binds | binding result [2]: no binding

B2: IR5 MT1 (dsDNA)
DNA 1: CTCACTTTTGCGTCCCGCCGC
DNA 2: GCGGCGGGACGCAAAAGTGAG
binding result [3]: no binding

B3: IR5 MT2 (dsDNA)
DNA 1: CTCACGGCCGCGTCCCGCCGC
DNA 2: GCGGCGGGACGCGGCCGTGAG
binding result [3]: no binding

— paper PMC3078326
